The data set deals with the molecule itself. Briefly: gel filtration (Superdex 200); elution volume against monomer, dimer and tetramer standards. A general note: SEC sorts molecules by how far they enter the pores of the column.

B1: monomeric eqFP611 variant as set forth in SEQ ID No. 1 (mRuby) (other)
chain: MNSLIKENMRMKVVLEGSVNGHQFKCTGEGEGNPYMGTQTMRIKVIEGGPLPFAFDILATSFMYGSRTFIKYPKGIPDFFKQSFPEGFTWERVTRYEDGGVITVMQDTSLEDGCLVYHAQVRGVNFPSNGAVMQKKTKGWEPNTEMMYPADGGLRGYTHMALKVDGGGHLSCSFVTTYRSKKTVGNIKMPGIHAVDHRLERLEESDNEMFVVQREHAVAKFAGLGGG
notes: not shown: N-terminal poly-His tag from the pQE-32 vector
For the protein B1, the binding result is reported as “no binding (tested: 4-30 mg/ml (0.16-1.2 mM))”.

(Values after US20120107244A1 (UNIVERSIT T ULM, published 2012).)
